T1: gD-SRA-ID-GPI (construct e) (human, UniProt O14791 305-398, C-terminal GPI anchor)
T1 sequence: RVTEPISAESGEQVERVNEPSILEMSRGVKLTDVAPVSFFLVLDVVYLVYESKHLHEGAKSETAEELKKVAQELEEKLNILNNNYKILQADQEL

T2: iAPOL1-G0 in podocytes (EIK variant, doxycycline-inducible, in APOL1 KO podocytes) (human, UniProt O14791 29-398)
T2 construct: Stably re-expressed untagged APOL1 isoform A in APOL1 KO clone 89401-3; also called iAPOL1-G0 podocytes; iAPOL1 podocytes
T2 chain: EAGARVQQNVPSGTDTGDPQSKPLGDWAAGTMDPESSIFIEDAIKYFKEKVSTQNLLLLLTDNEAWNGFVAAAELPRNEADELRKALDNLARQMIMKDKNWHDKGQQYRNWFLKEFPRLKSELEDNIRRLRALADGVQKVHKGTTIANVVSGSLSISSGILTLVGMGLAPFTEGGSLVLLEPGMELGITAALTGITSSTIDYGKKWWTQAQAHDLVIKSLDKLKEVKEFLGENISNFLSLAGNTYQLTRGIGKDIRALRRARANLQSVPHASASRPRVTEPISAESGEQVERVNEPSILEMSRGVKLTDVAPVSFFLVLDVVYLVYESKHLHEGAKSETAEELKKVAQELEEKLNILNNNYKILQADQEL


Key:
[1] = molecular target: T1, gD-SRA-ID-GPI (construct e); assay: flow cytometry, live CHO cells expressing the construct, 5 µg/ml
Method: Stably transfected live (not fixed or permeabilized) CHO cells expressing the gD-iAPOL1-GPI constructs indicated in FIGS. 1A-1E after induction with 5 μg/ml dox for 48 h, showing differential antibody binding at 5 μg/ml. […] White histograms are Alexa488 anti-mouse or anti-rabbit secondaries only; grey histograms are the anti-APOL1 signals. A representative histogram for each category is shown: 3.7D6 for PFD; 3.3A8 for C-terminus of MAD, 3.5H9 for N-terminus of MAD; 3.1C1 for SRA-ID; 3.2D4 for multi-domain; 3.3F7 for conformational and 3.5B10 for FACS-negative (FACS-ve). The prefix 3 in the name of the antibodies denotes murine monoclonals from Method #3 (as shown in Example 1 below); other antibodies (not illustrated here) starting with the number 4 are murine monoclonals derived from mice additionally boosted with SRA-ID protein; and prefix 5-named antibodies are rabbit monoclonals from Method #5 (Table 2A; and Example 2). […] The Sigma polyclonal (HPA018885, raised to aa 263-387) and the Epitomics rabbit monoclonal (EPR2907(2), raised to an undisclosed peptide) are SRA-ID binders. […]
Cells were harvested with 5 mM EDTA in PBS, washed once with growth media and twice with PBS. […] Signals were read in a FACSCalibur3 (Becton Dickinson), with the exception of FIG. 8A and FIG. 14, which used a FACSCelesta, and data was analyzed using FlowJo v8.4.5.

[2] = molecular target: T2, iAPOL1-G0 in podocytes (EIK variant, …); assay: immunoelectron microscopy, APOL1-G0 podocytes
Method: Scale bars are 200 nm. APOL1 appears more closely associated with the inner ER membrane face than does the luminal KDEL.
For iEM, 1.4×10⁶ HEK-293 cells in T25 flasks were reverse transfected with 5.4 μg APOL1 or APOL2 cDNA with 12 μl Fugene 6 (Roche 11814443001) for 50 h or 65 h, respectively. Podocytes and transiently transfected HEK-293 cells were fixed with 4% paraformaldehyde in 0.1M phosphate buffer (PB), pH 7.4, for 2 h at room temperature, then overnight at 4° C., and with 2% paraformaldehyde, 0.2% glutaraldehyde in 0.1 M phosphate buffer (PB), pH 7.4, for 2 h at room temperature, respectively. Fixations were continued in 1% PFA in 0.1 M PB at 4° C. for several days. […] For quantitation, random images of APOL1/2 expressing HEK-293 cells and podocytes were made. The positions of at least 50 gold particles per antibody were scored as either (i) OMF: overlapping on outer ER membrane surface and cytosol, or located in the cytosol at a distance ≤15 nm between outer ER membrane surface and the 10 nm gold particle surface; (ii) IMF: overlapping on inner ER membrane surface and ER lumen, or located in the lumen at a distance ≤15 nm between inner ER membrane surface and gold particle surface; or (iii) Lumen: within the ER lumen, with a distance >15 nm between the 10 nm gold particle surface and the nearest inner ER membrane surface. […]

binding result [1]	binding result [2]	Binder
binds	–	antibody 3.1C1 (antibody, V domains shown, Mouse mAb, cloned as murine IgG2a LALAPG; not written separately; also called SRA-ID mAb 3.1C1) VH: QVQLQQSGPELVKPGASVRISCKASGYTFTNYFIHWVKQRPGQGLEWIGWINPGNLNTKYTEEFKGKATLTADKSSSTAYIQLNSLTSEDSAVYFCVNGNPFVYWGQGTLVTVSA VL: DIVMTQSPSSLTVIAGEKVTLNCKSSQSLLNSGNQKKYLTWLQQKPGQPPKLLIYWTSTRDSGVPDRFTGSGSGTDFTLTISSVQAEDLAVYYCQNDYSYPLTFGAGTKLEIKR
–	binds	antibody 3.6E10 (antibody, V domains shown, Mouse mAb, cloned as murine IgG2a LALAPG) VH: QVQLQQSGAELAKPGASVKMSCKASGYIFTSYYLHWVKQRPGQGLEWIGYINPNTGYTEYTQNFKDRATLTADKSSSTAYMQLTSLTSEDSAVYFCVNGNPFVYWGQGTLVTVSA VL: DIVMTQSPSSLTVTTGEKVTMTCRSSQSLLNSGNQKNYLTWFQQKPGQPPKLLIYWTSTRYSGVPDRFTGSGSGTDFTLTISSVQAEDLAVYYCQNDYSYPLTFGAGTKLEIKR
